Data as given in patent publication US20210047402A1 (TENEOBIO, published 2021).

B1: anti-CD22 heavy chain-only antibody Clone ID 335206 (antibody, V domains shown)
VH: QLQLQESGPGLVKPSETLSLTCTVSGDSISSGDYYWGWIRQPPGKGLEWIGHIYYSGATYYNPSLKNRVTISVDTSKNQFSLKLSSVTAADTAVYYCTREDSSNWRSRGQGTLVTVSS
notes: Heavy chain-only antibody (UniAb), no light chain
B2: anti-CD22 heavy chain-only antibody Clone ID 324508 (antibody, V domains shown)
VH: QLQLQESGPGLVKPSETLSLTCTVSGGSISSGDYYWGWIRQPPGKGLEWIGHIYYSGATYYNPSLENRVTISVDTSKNQFSLKLSSVTAADTAVYYCTRDDSSNWRSRGQGTLVTVSS
notes: as for B1
B3: anti-CD22 heavy chain-only antibody Clone ID 335150 (antibody, V domains shown)
VH: QLQLQESGPGLVKPSETLSLTCTVSGDSISSGDYYWGWIRQSPEKGLEWIGHIYYSGVTYYNPSLKNRVTISVDTSKNQFSLKLSSVTAADTAVYYCKRDDSSNWRSRGQGTLVTVSS
notes: as for B1
B4: anti-CD22 heavy chain-only antibody Clone ID 335151 (antibody, V domains shown)
VH: QLQLQESGPGLVKPSETLSLTCTVSGDSISSGDYYWGWIRQPPGKGLEWIGHIYYSGATYYNPSLKNRVTISVDTSRNQFSLNLSSVTAADTAVYYCTRDDSSNWRSRGQGTLVTVSS
notes: as for B1
B5: anti-CD22 heavy chain-only antibody Clone ID 335154 (antibody, V domains shown)
VH: QLQLQESGPGLVKPSETLSLTCTVSGDSISSGDYYWGWIRQPPGKGLEWIGHIYYSGVTYYNPSLKNRVTISVDTSKNQFSLKLSSVTAADTAVYYCTRDDSSNWRSRGQGTLVTVSS
notes: as for B1
B6: anti-CD22 heavy chain-only antibody Clone ID 335158 (antibody, V domains shown)
VH: QLQLQESGPGLVKPSETLSLTCTVSGGSISSGDYYWGWIRQPPGKGLEWIGHIYYSGATYYNPSLKNRVTISVDTSRNQFSLKLSSVTAADTAVYYCTRDDSSNWRSRGQGTLVTVSS
notes: as for B1
B7: anti-CD22 heavy chain-only antibody Clone ID 335159 (antibody, V domains shown)
VH: QLQLQESGPGLVKPSETLSLTCTVSGGSISSSSYYWGWIRQPPGKGLEWIGHIYYSGVTYYNPSLKNRVTISVDTSKNQFSLKLSSVTAADTAAYYCTRDDSSNWRSRGQGTLVTVSS
notes: as for B1
B8: anti-CD22 heavy chain-only antibody Clone ID 335160 (antibody, V domains shown)
VH: QLQLQESGPGLVKPSETLSLTCTVSGDSISSGDYYWGWIRQPPGKGLEWIGSIYYSGATYYNPSLKNRVTISVDTSKNQFSLKLSSVTAADTAVYYCTRDDSSNWRSRGQGTLVTVSS
notes: as for B1
B9: anti-CD22 heavy chain-only antibody Clone ID 335161 (antibody, V domains shown)
VH: QLQLQESGPGLVKPSETLSLTCTVSGDSISSGDYYWGWIRQPPGKGLEWIGHIYYSGATYYNPSLENRVTISVDTSKNQFSLKLSSVTAADTAVYYCTRDDSSNWRSRGQGTLVTVSS
notes: as for B1
B10: anti-CD22 heavy chain-only antibody Clone ID 335162 (antibody, V domains shown)
VH: QLQLQESGPGLVKPSETLSLTCTVSGGSIISSSYYWGWIRQPPGKGLEWIGSIYYSGSAYYHPSLKSRVTISIDTSKNQFSLKLSSVTAADTAVYYCARDDSSNWRSRGQGTLVTVSS
notes: as for B1
B11: anti-CD22 heavy chain-only antibody Clone ID 335166 (antibody, V domains shown)
VH: QLQLQESGPGLVKPSETLSLTCTVSGGSISSSSYYWGWIRQPPGKGLEWIGSIYYSGSTYYNPSLKNRVTISVDTSRNQFSLNLSSVTAADTAVYYCTRDDSSNWRSRGQGTLVTVSS
notes: as for B1
B12: anti-CD22 heavy chain-only antibody Clone ID 335170 (antibody, V domains shown)
VH: QLQLQESGPGLVKPSETLSLTCTVSGDSISSGDYYWGWIRQPPGKGLEWIGHIYYSGATYYNPSLKNRVTISVDTSRNQFSLKLSSVTAADTAVYYCTRDDSSNWRSRGQGTLVTVSS
notes: as for B1
B13: anti-CD22 heavy chain-only antibody Clone ID 335171 (antibody, V domains shown)
VH: QLQLQESGPGLVKPSETLSLTCTVSGGSISSSSYYWGWIRQPPGKGLEWIGSIYYSGATYYNPSLKNRVTISVDTSRNQFSLNLSSVTAADTAVYYCTRDDSSNWRSRGQGTLVTVSS
notes: as for B1
B14: anti-CD22 heavy chain-only antibody Clone ID 335173 (antibody, V domains shown)
VH: QLQLQESGPGLVKPSETLSLTCTVSGGSITSSSYYWGWIRQPPGKGLEWIGSIYYSGSTYYNPSLKSRVTISVDTSKNQFSLKLSSVTAADTAVYYCTRDDSSNWRSRGQGTLVTVSS
notes: as for B1
B15: anti-CD22 heavy chain-only antibody Clone ID 335176 (antibody, V domains shown)
VH: QLQLQESGPGLVKPSETLSLTCTVSGDSISSGDYYWGWIRQPPGKGLEWIGHIYYSGATYYNPSLKNRVTISVDTSKNQFSLKLSSVTAADTAVYYCTRDDSSNWRSRGQGTLVTVSS
notes: as for B1
B16: anti-CD22 heavy chain-only antibody Clone ID 335181 (antibody, V domains shown)
VH: QLQLQESGPGLVKPSETLSLTCTVSGDSISSGGYYWGWIRQPPGKGLEWIGHIYYSGATYYNPSLKNRVTISVDTSKNQFSLKLSSVTAADTAVYYCTRDDSSNWRSRGQGTLVTVSS
notes: as for B1
B17: anti-CD22 heavy chain-only antibody Clone ID 335182 (antibody, V domains shown)
VH: QLQLQESGPGLVKPSETLSLTCTVSGDSISSGDYYWGWIRQPPGKGLEWIGNIYYSGATYYNPSLKNRVTISVDTSKNQFSLKLSSVTAADTAVYYCTRDDSSNWRSRGQGTLVTVSS
notes: as for B1
B18: anti-CD22 heavy chain-only antibody Clone ID 335185 (antibody, V domains shown)
VH: QLQLQESGPGLVKPSETLSLTCTVSGDSISSGDYYWGWIRQPPGKGLEWIGHIYYSGATYYNPSLKNRVTISVDTSRNQFSLNLSSVTAADTAVYYCTREDSSNWRSRGQGTLVTVSS
notes: as for B1
B19: anti-CD22 heavy chain-only antibody Clone ID 335186 (antibody, V domains shown)
VH: QLQLQESGPGLVKPSETLSLTCTVSGGSISSSSYYWGWIRQPPGKGLEWIGSIYYSGSTYYNPSLKSRVTISVDTSKNQFSLKLSSVTAADTAVYYCTRDDSSNWRSRGQGTLVTVSS
notes: as for B1
B20: anti-CD22 heavy chain-only antibody Clone ID 335187 (antibody, V domains shown)
VH: QLQLQESGPGLVKPSETLSLTCTVSGGSISSSSYYWGWIRQPPGKGLEWIGHIYYSGATYYNPSLKNRVTISVDTSKNQFSLKLSSVTAADTAVYYCTRDDSSNWRSRGQGTLVTVSS
notes: as for B1
B21: anti-CD22 heavy chain-only antibody Clone ID 335188 (antibody, V domains shown)
VH: QLQLQESGPGLVKPSETLSLTCTVSGGSISSSSYYWGWIRQPPGKGLEWIGHIYYSGVTYYNPSLKNRVTISVDTSKNQFSLKLSSVTAADTAVYYCTRDDSSNWRSRGQGTLVTVSS
notes: as for B1
B22: anti-CD22 heavy chain-only antibody Clone ID 335189 (antibody, V domains shown)
VH: QLQLQESGPGLVKPSETLSLTCTVSGGSISSSSYYWGWIRQPPGKGLEWIGSVYYTGATYYNPSLKNRVTISVDTSKNQFSLKLSSVTAADTAVYYCTRDDSSNWRSRGQGTLVTVSS
notes: as for B1
B23: anti-CD22 heavy chain-only antibody Clone ID 335195 (antibody, V domains shown)
VH: QLQLQESGPGLVKPSETLSLTCTVSGGSISSSSYYWGWIRQPPGKGLEWIGSIYYSGATYYNPSLKNRVTISVDTSRNQFSLNLSSVTAADTAMYYCTREDSSNWRSRGQGTLVTVSS
notes: as for B1
B24: anti-CD22 heavy chain-only antibody Clone ID 335201 (antibody, V domains shown)
VH: QLQLQESGPGLVKPSETLSLTCTVSGDSISSGDYYWGWIRQPPGKGLEWIGHIYYSGVTYYNPSLKNRVTISVDTSRNQFSLKLSSVTAADTAVYYCTREDSSNWRSRGQGTLVTVSS
notes: as for B1

target: T1, human CD22 (human, UniProt P20273 20-687, limits assumed); assay: ELISA protein and cell-binding assays
T1 construct: also called SIGLEC-2; human CD22 protein
T1 sequence (looked up): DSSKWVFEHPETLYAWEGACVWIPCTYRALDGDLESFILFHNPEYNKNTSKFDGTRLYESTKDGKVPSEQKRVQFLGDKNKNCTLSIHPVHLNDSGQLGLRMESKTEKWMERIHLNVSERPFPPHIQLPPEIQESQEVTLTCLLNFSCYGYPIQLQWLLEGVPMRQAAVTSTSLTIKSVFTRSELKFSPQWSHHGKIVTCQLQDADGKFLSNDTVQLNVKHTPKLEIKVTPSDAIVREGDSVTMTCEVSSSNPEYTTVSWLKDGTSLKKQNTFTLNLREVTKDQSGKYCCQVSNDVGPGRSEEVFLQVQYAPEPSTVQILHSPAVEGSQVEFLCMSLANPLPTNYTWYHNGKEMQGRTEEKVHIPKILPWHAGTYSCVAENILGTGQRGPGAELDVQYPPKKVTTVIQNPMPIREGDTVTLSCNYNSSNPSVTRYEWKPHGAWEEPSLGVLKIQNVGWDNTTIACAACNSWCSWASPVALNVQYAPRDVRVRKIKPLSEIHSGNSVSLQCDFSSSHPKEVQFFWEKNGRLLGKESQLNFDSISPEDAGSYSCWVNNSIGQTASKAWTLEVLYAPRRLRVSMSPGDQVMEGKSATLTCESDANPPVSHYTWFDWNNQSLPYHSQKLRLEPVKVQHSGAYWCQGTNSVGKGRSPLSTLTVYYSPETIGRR

Binding result, binds:
B1
B2
B3
B4
B5
B6
B7
B8
B9
B10
B11
B12
B13
B14
B15
B16
B17
B18
B19
B20
B21
B22
B23
B24
